Data on 6 sequences can be found in the supplement of paper PMC5998384.

In data set [1] the test system is HeLa Kyoto. The experiment in a line: solubility in G1/S (NP-40 vs SDS abundance) (log2 ratio); higher = more soluble. To be noted: cell cycle stage: G1/S.
The subject of data set [2] is HeLa Kyoto. The experiment in a line: melting temperature (median over replicates), in situ; higher = more thermally stable.
For data set [3], the system named is HeLa Kyoto. The experiment in a line: solubility change mitosis vs G1/S (difference of NP-40 vs SDS log2 ratios) (log2 ratio difference); higher = more soluble in mitosis.
Data set [4] deals with HeLa Kyoto. The experiment in a line: thermal stability score vs G1/S (z-score of summed log2 fold changes over temperatures); higher = more thermally stable than in G1/S.
[5] abbreviates: cell cycle stage: early G1 (4.5 h after nocodazole release).
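Wherever melting temperature (median over replicates), in situ is given: HeLa Kyoto cells synchronized by double thymidine or nocodazole block, proteins quantified by TMT10plex mass spectrometry, three independent biological replicates.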
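Wherever solubility change mitosis vs G1/S (difference of NP-40 vs SDS log2 ratios) is given: synchronized HeLa Kyoto cells (double thymidine block for G1/S, nocodazole release for mitosis), protein amounts in NP-40 versus SDS lysates quantified by mass spectrometry, three biological replicates.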
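Wherever solubility in G1/S (NP-40 vs SDS abundance) is given: HeLa Kyoto cells arrested at G1/S by double thymidine block, proteins quantified by TMT10plex mass spectrometry in mild NP-40 versus SDS extracts, three biological replicates.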
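Wherever thermal stability score vs G1/S (z-score of summed log2 fold changes over temperatures) is given: synchronized HeLa Kyoto cells, proteins quantified by TMT10plex mass spectrometry, three biological replicates, mitosis taken 0.5 h after nocodazole release, G1/S directly after double thymidine block.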

For the sequence “MITSELPVLQDSTNETTAHSDAGSELEETEVKGKRKRGRPGRPPSTNKKPRKSPGEKSRIEAGIRGAGRGRANGHPQQNGEGEPVTLFEVVKLGKSAMQSVVDDWIESYKQDRDIALLDLINFFIQCSGCRGTVRIEMFRNMQNAEIIRKMTEEFDEDSGDYPLTMPGPQWKKFRSNFCEFIGVLIRQCQYSIIYDEYMMDTVISLLTGLSDSQVRAFRHTSTLAAMKLMTALVNVALNLSIHQDNTQRQYEAERNKMIGKRANERLELLLQKRKELQENQDEIENMMNSIFKGIFVHRYRDAIAEIRAICIEEIGVWMKMYSDAFLNDSYLKYVGWTLHDRQGEVRLKCLKALQSLYTNRELFPKLELFTNRFKDRIVSMTLDKEYDVAVEAIRLVTLILHGSEEALSNEDCENVYHLVYSAHRPVAVAAGEFLHKKLFSRHDPQAEEALAKRRGRNSPNGNLIRMLVLFFLESELHEHAAYLVDSLWESSQELLKDWECMTELLLEEPVQGEEAMSDRQESALIELMVCTIRQAAEAHPPVGRGTGKRVLTAKERKTQIDDRNKLTEHFIITLPMLLSKYSADAEKVANLLQIPQYFDLEIYSTGRMEKHLDALLKQIKFVVEKHVESDVLEACSKTYSILCSEEYTIQNRVDIARSQLIDEFVDRFNHSVEDLLQEGEEADDDDIYNVLSTLKRLTSFHNAHDLTKWDLFGNCYRLLKTGIEHGAMPEQIVVQALQCSHYSILWQLVKITDGSPSKEDLLVLRKTVKSFLAVCQQCLSNVNTPVKEQAFMLLCDLLMIFSHQLMTGGREGLQPLVFNPDTGLQSELLSFVMDHVFIDQDEENQSMEGDEEDEANKIEALHKRRNLLAAFSKLIIYDIVDMHAAADIFKHYMKYYNDYGDIIKETLSKTRQIDKIQCAKTLILSLQQLFNELVQEQGPNLDRTSAHVSGIKELARRFALTFGLDQIKTREAVATLHKDGIEFAFKYQNQKGQEYPPPNLAFLEVLSEFSSKLLRQDKKTVHSYLEKFLTEQMMERREDVWLPLISYRNSLVTGGEDDRMSVNSGSSSSKTSSVRNKKGRPPLHKKRVEDESLDNTWLNRTDTMIQTPGPLPAPQLTSTVLRENSRPMGDQIQEPESEHGSEPDFLHNPQMQISWLGQPKLEDLNRKDRTGMNYMKVRTGVRHAVRGLMEEDAEPIFEDVMMSSRSQLEDMNEEFEDTMVIDLPPSRNRRERAELRPDFFDSAAIIEDDSGFGMPMF [STAG1]”, the “solubility in G1/S (log2)” value in the data set on HeLa Kyoto [1] was -0.226. For the same sequence, the melting temperature came to 52 °C with HeLa Kyoto [2] (cell cycle stage: G1/S) and 50.6 °C with HeLa Kyoto [2] (cell cycle stage: mitosis). Also, the “solubility change mitosis (log2)” value with HeLa Kyoto [3] worked out at 0.0363. The thermal stability score was -0.0959 in the data set on HeLa Kyoto [4] (setting [5]) and -1.71 in the data set on HeLa Kyoto [4] (cell cycle stage: mitosis).

“MIVQRVVLNSRPGKNGNPVAENFRMEEVYLPDNINEGQVQVRTLYLSVDPYMRCRMNEDTGTDYITPWQLSQVVDGGGIGIIEESKHTNLTKGDFVTSFYWPWQTKVILDGNSLEKVDPQLVDGHLSYFLGAIGMPGLTSLIGIQEKGHITAGSNKTMVVSGAAGACGSVAGQIGHFLGCSRVVGICGTHEKCILLTSELGFDAAINYKKDNVAEQLRESCPAGVDVYFDNVGGNISDTVISQMNENSHIILCGQISQYNKDVPYPPPLSPAIEAIQKERNITRERFLVLNYKDKFEPGILQLSQWFKEGKLKIKETVINGLENMGAAFQSMMTGGNIGKQIVCISEEISL [PTGR2]”: the “solubility in G1/S (log2)” value with HeLa Kyoto [1] was 0.0876. The figures for the melting temperature in the data set on HeLa Kyoto [2] (cell cycle stage: G1/S) and in the data set with HeLa Kyoto [2] (cell cycle stage: mitosis) were 50.5 °C and 50.6 °C, respectively. Also, the “solubility change mitosis (log2)” value with HeLa Kyoto [3] was -0.0529. The thermal stability score with HeLa Kyoto [4] (setting [5]) is 0.0557; with HeLa Kyoto [4] (cell cycle stage: mitosis), -0.682.

“MKAVVQRVTRASVTVGGEQISAIGRGICVLLGISLEDTQKELEHMVRKILNLRVFEDESGKHWSKSVMDKQYEILCVSQFTLQCVLKGNKPDFHLAMPTEQAEGFYNSFLEQLRKTYRPELIKDGKFGAYMQVHIQNDGPVTIELESPAPGTATSDPKQLSKLEKQQQRKEKTRAKGPSESSKERNTPRKEDRSASSGAEGDVSSEREP [DTD1]”: in the data set with HeLa Kyoto [1], the “solubility in G1/S (log2)” value amounted to 0.119. The melting temperature was 58.3 °C in the data set on HeLa Kyoto [2] (cell cycle stage: G1/S) and 57.5 °C in the data set on HeLa Kyoto [2] (cell cycle stage: mitosis). Also, the “solubility change mitosis (log2)” value in the data set on HeLa Kyoto [3] was 0.00349. In addition, the thermal stability score in the data set on HeLa Kyoto [4] (setting [5]) amounted to 2.15; in the data set on HeLa Kyoto [4] (cell cycle stage: mitosis), 0.509.

Regarding “MKFAEHLSAHITPEWRKQYIQYEAFKDMLYSAQDQAPSVEVTDEDTVKRYFAKFEEKFFQTCEKELAKINTFYSEKLAEAQRRFATLQNELQSSLDAQKESTGVTTLRQRRKPVFHLSHEERVQHRNIKDLKLAFSEFYLSLILLQNYQNLNFTGFRKILKKHDKILETSRGADWRVAHVEVAPFYTCKKINQLISETEAVVTNELEDGDRQKAMKRLRVPPLGAAQPAPAWTTFRVGLFCGIFIVLNITLVLAAVFKLETDRSIWPLIRIYRGGFLLIEFLFLLGINTYGWRQAGVNHVLIFELNPRSNLSHQHLFEIAGFLGILWCLSLLACFFAPISVIPTYVYPLALYGFMVFFLINPTKTFYYKSRFWLLKLLFRVFTAPFHKVGFADFWLADQLNSLSVILMDLEYMICFYSLELKWDESKGLLPNNSEESGICHKYTYGVRAIVQCIPAWLRFIQCLRRYRDTKRAFPHLVNAGKYSTTFFMVTFAALYSTHKERGHSDTMVFFYLWIVFYIISSCYTLIWDLKMDWGLFDKNAGENTFLREEIVYPQKAYYYCAIIEDVILRFAWTIQISITSTTLLPHSGDIIATVFAPLEVFRRFVWNFFRLENEHLNNCGEFRAVRDISVAPLNADDQTLLEQMMDQDDGVRNRQKNRSWKYNQSISLRRPRLASQSKARDTKVLIEDTDDEANT [XPR1]”, the “solubility in G1/S (log2)” value in the data set on HeLa Kyoto [1] is -0.193. Moreover, the melting temperature in the data set with HeLa Kyoto [2] (cell cycle stage: G1/S) stood at 52.2 °C; in the data set on HeLa Kyoto [2] (cell cycle stage: mitosis) it was 51.1 °C. Moreover, the “solubility change mitosis (log2)” value in the data set with HeLa Kyoto [3] was -0.121. The thermal stability score is -0.783 in the data set with HeLa Kyoto [4] (setting [5]) and -1.57 in the data set with HeLa Kyoto [4] (cell cycle stage: mitosis).

Take “MKGLYFQQSSTDEEITFVFQEKEDLPVTEDNFVKLQVKACALSQINTKLLAEMKMKKDLFPVGREIAGIVLDVGSKVSFFQPDDEVVGILPLDSEDPGLCEVVRVHEHYLVHKPEKVTWTEAAGSIRDGVRAYTALHYLSHLSPGKSVLIMDGASAFGTIAIQLAHHRGAKVISTACSLEDKQCLERFRPPIARVIDVSNGKVHVAESCLEETGGLGVDIVLDAGVRLYSKDDEPAVKLQLLPHKHDIITLLGVGGHWVTTEENLQLDPPDSHCLFLKGATLAFLNDEVWNLSNVQQGKYLCILKDVMEKLSTGVFRPQLDEPIPLYEAKVSMEAVQKNQGRKKQVVQF [CRYZL1]”: the “solubility in G1/S (log2)” value in the data set on HeLa Kyoto [1] was determined as 0.11. In addition, the figures for the melting temperature in the data set with HeLa Kyoto [2] (cell cycle stage: G1/S) and with HeLa Kyoto [2] (cell cycle stage: mitosis) were 57 °C and 56.9 °C, respectively. Besides, the “solubility change mitosis (log2)” value in the data set on HeLa Kyoto [3] was -0.249. For the same sequence, the figures for the thermal stability score with HeLa Kyoto [4] (setting [5]) and with HeLa Kyoto [4] (cell cycle stage: mitosis) were 0.0481 and -1.74, respectively.

Regarding “MKGSRIELGDVTPHNIKQLKRLNQVIFPVSYNDKFYKDVLEVGELAKLAYFNDIAVGAVCCRVDHSQNQKRLYIMTLGCLAPYRRLGIGTKMLNHVLNICEKDGTFDNIYLHVQISNESAIDFYRKFGFEIIETKKNYYKRIEPADAHVLQKNLKVPSGQNADVQKTDN [NAA50]”, the “solubility in G1/S (log2)” value in the data set with HeLa Kyoto [1] was 0.325. Besides, the melting temperature in the data set with HeLa Kyoto [2] (cell cycle stage: G1/S) was 53.1 °C; with HeLa Kyoto [2] (cell cycle stage: mitosis) it was 53.8 °C. In addition, the “solubility change mitosis (log2)” value with HeLa Kyoto [3] was -0.0822. The results for the thermal stability score in the data set on HeLa Kyoto [4] (setting [5]) and with HeLa Kyoto [4] (cell cycle stage: mitosis) were 0.726 and -0.495, respectively.
